{
  "source": "the supplement of paper PMC10567573",
  "parents": {"B1": {"name": "FUT8 (parent)", "chain": "YPSYKVREKIETVKYPTYPEAEK"}},
  "data": [
    {"variants_of": "B1", "experiment": "protein stability index of a GFP-peptide fusion (GPS, HEK-293T) (PSI 1-6); higher = more stable", "settings": "c terminus: native", "values": [
      {"variant": "YPSYKVREKIETVCYPTYPEAEK", "protein stability index": 4.18},
      {"variant": "YPSYKVREKIETVGYPTYPEAEK", "protein stability index": 4.98},
      {"variant": "YPSYKVREKIETVTYPTYPEAEK", "protein stability index": 3.61},
      {"variant": "YPSYKVREKIETVSYPTYPEAEK", "protein stability index": 4.44},
      {"variant": "YPSYKVREKIETVRYPTYPEAEK", "protein stability index": 4.27},
      {"variant": "YPSYKVREKIETVMYPTYPEAEK", "protein stability index": 3.85},
      {"variant": "YPSYKVREKIETVHYPTYPEAEK", "protein stability index": 3.95},
      {"variant": "YPSYKVREKIETVKYETYPEAEK", "protein stability index": 4.29},
      {"variant": "YPSYKVREKIETVKYQTYPEAEK", "protein stability index": 4.14},
      {"variant": "YPSYKVREKIETVKYRTYPEAEK", "protein stability index": 3.95},
      {"variant": "YPSYKVREKIETVKYWTYPEAEK", "protein stability index": 2.78},
      {"variant": "YPSYKVREKIETVKYYTYPEAEK", "protein stability index": 3.62},
      {"variant": "YPSYKVREKIETVKYSTYPEAEK", "protein stability index": 3.75},
      {"variant": "YPSYKVREKIETVKYLTYPEAEK", "protein stability index": 4.03},
      {"variant": "YPSYKVREKIETVKYCTYPEAEK", "protein stability index": 3.7},
      {"variant": "YPSYKVREKIETVKYDTYPEAEK", "protein stability index": 4.4},
      {"variant": "YPSYKVREKIETVKYNTYPEAEK", "protein stability index": 4.12},
      {"variant": "YPSYKVREKIETVKYHTYPEAEK", "protein stability index": 4.06},
      {"variant": "YPSYKVREKIETVKYGTYPEAEK", "protein stability index": 4.28},
      {"variant": "YPSYKVREKIETVKYKTYPEAEK", "protein stability index": 4.19},
      {"variant": "YPSYKVREKIETVKYMTYPEAEK", "protein stability index": 4},
      {"variant": "YPSYKVREKIETVKYVTYPEAEK", "protein stability index": 4.6},
      {"variant": "YPSYKVREKIETVKYTTYPEAEK", "protein stability index": 4.13},
      {"variant": "YPSYKVREKIETVKYATYPEAEK", "protein stability index": 3.89},
      {"variant": "YPSYKVREKIETVKYFTYPEAEK", "protein stability index": 4.79},
      {"variant": "YPSYKVREKIETVKYITYPEAEK", "protein stability index": 3.65},
      {"variant": "YPSYKVREKIETVKYPHYPEAEK", "protein stability index": 4.41},
      {"variant": "YPSYKVREKIETVKYPFYPEAEK", "protein stability index": 3.45},
      {"variant": "YPSYKVREKIETVKYPDYPEAEK", "protein stability index": 3.7},
      {"variant": "YPSYKVREKIETVKYPAYPEAEK", "protein stability index": 4.56},
      {"variant": "YPSYKVREKIETVKYPKYPEAEK", "protein stability index": 4.69},
      {"variant": "YPSYKVREKIETVKYPGYPEAEK", "protein stability index": 4.02},
      {"variant": "YPSYKVREKIETVKYPCYPEAEK", "protein stability index": 3.8},
      {"variant": "YPSYKVREKIETVKYPEYPEAEK", "protein stability index": 4.43},
      {"variant": "YPSYKVREKIETVKYPIYPEAEK", "protein stability index": 3.7},
      {"variant": "YPSYKVREKIEPVKYPTYPEAEK", "protein stability index": 4.49},
      {"variant": "YPSYKVREKIERVKYPTYPEAEK", "protein stability index": 4.05},
      {"variant": "YPSYKVREKIENVKYPTYPEAEK", "protein stability index": 3.62},
      {"variant": "YPSYKVREKIESVKYPTYPEAEK", "protein stability index": 3.91},
      {"variant": "YPSYKVREKIEWVKYPTYPEAEK", "protein stability index": 3.21},
      {"variant": "YPSYKVREKIEGVKYPTYPEAEK", "protein stability index": 4.01},
      {"variant": "YPSYKVREKIEVVKYPTYPEAEK", "protein stability index": 2.14},
      {"variant": "YPSYKVREKIEHVKYPTYPEAEK", "protein stability index": 3.25},
      {"variant": "YPSYKVREKIEEVKYPTYPEAEK", "protein stability index": 4.33},
      {"variant": "YPSYKVREKIEQVKYPTYPEAEK", "protein stability index": 4.94},
      {"variant": "YPSYKVREKIEFVKYPTYPEAEK", "protein stability index": 3.06},
      {"variant": "YPSYKVREKIEKVKYPTYPEAEK", "protein stability index": 4.71},
      {"variant": "YPSYKVREKIEYVKYPTYPEAEK", "protein stability index": 4.15},
      {"variant": "YPSYKVREKIELVKYPTYPEAEK", "protein stability index": 3.14}
    ]}
  ]
}
